US20120141505A1 (published 2012)

Key:
[1] = target: T1, human CD19 expressed on transfected DT40 chicken B-lymphoma cells (DT40hCD19+) (human, UniProt P15391 20-556); assay: flow cytometry, biotin-labeled CD19-L plus Avidin-FITC
T1 construct: Human CD19 cDNA under a chicken actin promoter (pApuro) in DT40 cells; also called human CD19 co-receptor
T1 sequence: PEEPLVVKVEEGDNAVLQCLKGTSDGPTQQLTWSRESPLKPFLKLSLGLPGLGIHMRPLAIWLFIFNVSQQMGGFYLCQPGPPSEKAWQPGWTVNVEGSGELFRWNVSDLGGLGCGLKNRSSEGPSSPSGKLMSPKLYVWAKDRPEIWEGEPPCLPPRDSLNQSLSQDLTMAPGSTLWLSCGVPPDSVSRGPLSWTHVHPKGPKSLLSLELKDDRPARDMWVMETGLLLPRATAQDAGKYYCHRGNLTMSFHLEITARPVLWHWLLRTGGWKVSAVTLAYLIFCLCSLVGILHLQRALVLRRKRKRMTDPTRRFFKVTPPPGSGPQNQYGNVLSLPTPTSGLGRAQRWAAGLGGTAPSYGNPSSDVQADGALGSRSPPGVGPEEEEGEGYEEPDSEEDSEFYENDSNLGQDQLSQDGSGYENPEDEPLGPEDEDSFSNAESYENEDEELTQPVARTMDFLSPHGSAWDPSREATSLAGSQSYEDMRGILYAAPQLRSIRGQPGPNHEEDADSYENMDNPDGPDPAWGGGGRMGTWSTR
Source text: (§1) Binding of biotin-labeled soluble CD19-L protein to the surface of CD19 co-receptor positive cells was examined using immunofluorescence staining combined with flow cytometry and deconvolution microscopy.

[2] = target: T2, CD19 co-receptor on CD19+ human B-lineage ALL cells (primary leukemic cells; NALM-6 cell line) (human, UniProt P15391 20-556); assay: deconvolution microscopy, biotin-labeled CD19-L plus Avidin-FITC
T2 construct: Endogenous CD19 on leukemia cells
T2 sequence: T1 sequence
Description: Deconvolution microscopy was performed using the Deltavision deconvolution system from Applied Precision which consists of a Nikon TE200 inverted microscope outfitted for epifluorescence and fitted with an Applied Precision nanomover stage for precise control of the stage. Image collection was through a Photometrics CH350/L liquid cooled CCD camera. The system was controlled by SoftWoRx imaging software run on a Silicon Graphics O2 workstation.
as §1

B1: biotin-labeled soluble recombinant human CD19-L protein (ligand)
chain: MYMSMTEPSQDYVPASQSYPGPSLESEDFNIPPITPPSLQDHSLVHLNEVESGYHSLCHPMNHNGLLPFHPQNMDLPEITVSNMLGQDGTLLSNSISVMPDIRNPEGTQYSSHPQMAAMRPRGQPAQIRQQPGMMPHGQLTTINQSQLSAQLGLNMGGSNVPHNSPSPPGSKSATPSPSSSVHEDEGDDTSKINGGEKRPASDMGKKPKTPKKKKKKDPNEPQKPVSAYALFFRDTQAAIKGQNPNATFGEVSKIVASMWDGLGEEQKQVYKKKTEAAKKEYLKQLAAYRASLVSKSYSEPVDVKTSQPPQLINSKPSVFHGPSQAHSALYLSSHYHQQPGMNPHLTAMHPSLPRNIAPKPNNQMQVTVSIANMAVSPPPPLQISPPLHQHLNMQQHQPLTMQQPLGNQLPMQVQSALHSPTMQQGFTLQPDYQTIINPTSTAAQVVTQAMEYVRSGCRNPPPQPVDWNNDYCSSGGMQRDKALYLT
modifications: biotin-labeled (sites not given) ; Biotin-labelled; sites and chemistry not stated.
notes: Same recombinant protein as m1, labelled with biotin and detected with Avidin-FITC; also called biotin-labeled CD19-L; biotin-labeled soluble CD19-L protein; not shown: N-terminal pFastBacHT leader (6xHis tag, spacer region, rTEV cleavage site)
- binding result [1]: binds
- binding result [2]: binds
